Reference: patent US20190153078A1 (Sanofi, published 2019)
Read-outs that look alike come from different tables or passages of the source.

Legend:
[1] = target: T1, C. difficile toxin A from strain VPI10463 (ATCC 43255), toxinotype 0 (Clostridium difficile, UniProt P16154 1-2710)
[2] = target: T1, C. difficile toxin A from strain …; test: cell-based or functional assay
[3] = target: T1, C. difficile toxin A from strain …; test: cell-based or functional assay; remark: listed apart in the source
[4] = target: T1, C. difficile toxin A from strain …; test: BLI (Octet Red96), antibody on Protein A sensor, toxin in solution
[5] = target: T2, C. difficile toxin B from strain VPI10463 (ATCC 43255), toxinotype 0 (Clostridium difficile, UniProt P18177 2-2366)
[6] = target: T2, C. difficile toxin B from strain …; test: cell-based or functional assay
[7] = target: T2, C. difficile toxin B from strain …; test: BLI (Octet Red96), antibody on Protein A sensor, toxin in solution
[8] = target: T2, C. difficile toxin B from strain …; test: cell-based or functional assay; remark: listed apart in the source
[9] = target: Mutant Toxin B MLD (1-91) + LPETGG + 6X HIS (Clostridium difficile); test: BLI (Octet RED96)
[10] = target: T3, WT Toxin B MLD (1-91) + LPETGG + 6X HIS (Clostridium difficile); test: Western, dot blot, Octet (summary)
[11] = target: T3, WT Toxin B MLD (1-91) + LPETGG + 6X HIS; test: BLI (Octet RED96)

Row | Binder | Kd [1] [nM] | % completion cytotox (Vero cells) [2] [%] | Cytotox NT50, pM (Vero cells) [2] [pM] | TEER NT50, nM (T-84 cells) [3] [nM] | Kd [4] [nM] | koff [4] [s⁻¹] | kon [4] [M⁻¹ s⁻¹] | Kd [5] [nM] | % completion TEER (T-84 cells) [6] [%] | TEER NT50 (T-84 cells) [6] | Kd [7] [nM] | koff [7] [s⁻¹] | kon [7] [M⁻¹ s⁻¹] | % completion TEER (T-84 cells) [3] [%] | % completion cytotox (Vero cells) [8] [%] | Cytotox NT50, pM (Vero cells) [8] [pM] | binding result [9] | binding result [10] | binding result [11]
1 | A4 antibody (antibody, V domains shown) VH: QVHLVESGGGVVQPGRSLRLSCATFGLNFSDYGFHWVRQAPGKGLEWVAVTSYDGSNKYYAEFVKGRFTISRDNYKNTVYLQMNSLRLEDTAVYYCARDLAPYNFWSGYGNNWFDPWGQGTLVTVSS VL: EIVLTQSPGTLSLSPGERATLSCRASQSVTGTSLAWFQQKPGQAPRLLIYGASSRATGIPDRFSGSGSGTDFTLTISRLEPEDFAVYYCQQYGSSPRLTFGGGTKVEIKR | < 0.01 | < 90 | 3400 | 4.7 | 0.000557 | 3.09e-07 | 555000 | – | – | – | – | – | – | – | – | – | – | – | –
2 | B6 antibody (antibody, V domains shown) VH: EVQLVESGGGLVQPGGSLRLSCAASGFTFTTSTMNWVRQAPGKGLEWVSYITRTSTVIYYADSVKGRFTISRDNAKNSLYLQMSSLRAEDTAVYYCARGVRDIGGNGFDYWGQGTLVTVSS VL: EIVLTQSPGTLSLSPGERATLSCRASQSVTSSYLAWYQQKTGQAPRLLIYGASSRATGIPDRFSGSGSGTDFTLTIARLEPEDFAVYYCQQYGSSPPYTFGQGTKLEIKR | – | – | – | – | – | – | – | < 0.01 | 92 | 100 | 0.000726 | 5.3e-07 | 730000 | – | – | – | – | – | –
3 | A5 antibody (antibody, V domains shown) VH: QVHLVESGGGVVQPGRSLRLSCATFGLNFSDYGFHWVRQAPGKGLEWVAVTSYDGSNKYYAEFVKGRFTISRDNYKNTVYLQMNSLRLEDTAVYYCARDLAPYNFWSGYGNNWFDPWGQGTLVTVSS VL: EIVMTQSPATLSVSPGERATLSCRASQSISSNLAWYQQKPGQAPRLLIYDASTRATGIPARFSGSGSGTEFTLTISSLQSEDFAVYYCQQYNDWLVTFGQGTKVEIKR | – | 75 | 2700 | 7.3 | 0.144 | 4.49e-05 | 312000 | – | – | – | – | – | – | – | – | – | – | – | –
4 | A1 antibody (antibody, V domains shown) VH: QVHLQESGPGLVKPSETLSLTCTVSGDSISTYYWSWIRQPPGKGLEWIGYVYYTGSTNYSPSLEGRVTLSVDTSKNQFSLKLNSVSAADTAVYYCARGAAEWLRFRGFFDYWGQGILVSVSS VL: EVVLTQSPGTLSLSPGERATLSCRASQSVTNGFLAWYQQKPGQAPRVLIYGASSRATGIPDRFSGSGSGTDFTLTISRLEPEDFAMYYCQQYGLSGTFGQGTKLEIKR | – | < 90 | 48 | < 1.3 | < 0.01 | < 3.75e-06 | 375000 | – | – | – | – | – | – | 80 | – | – | – | – | –
5 | A2 antibody (antibody, V domains shown) VH: QVQLQESGPGLVKPSETLSLTCTVSGGSISTYYWSWIRQSPGKGLEWMGYIYYSGSTNYNPSLESRVTIAVDTSKNQFSLQLTSVTAADTAVYYCARGAAEWLRFRGFFDSWGQGTLVTVSS VL: ENVLTQSPGTLSLSPGERATLSCRASHSVTNNFLAWYQQKPGQAPRLLIYGVSSRATGIPDRFSGSGSGTDFTLTISRLEPEDFAVYYCQQYGVSGTFGQGTKLEIKR | < 0.01 | 100 | 55 | 1.8 | 0.00443 | 1.58e-06 | 356000 | – | – | – | – | – | – | 75 | – | – | – | – | –
6 | B5 antibody (antibody, V domains shown) VH: QVHLQESGPGLVKPSGTLSLTCAVSGGSISYTNWWSWVRLPPGKGLEWIGEIYHSRSTNYNPSLKSRVTMSIDKSKNLFSLKLNSVTAADTAIYYCAKAAYTRDGIQPFDNWGQGTLVTVSS VL: not shown | – | – | – | – | – | – | – | – | 70 | 200 | 0.202 | 9.62e-05 | 477000 | – | 95 | 2900 | – | – | –
7 | A3 antibody (antibody, V domains shown) VH: MQLLESGGGLVKPGGSLRLSCAASGFTFSNAWMSWVRQGPGKGLEWVGRIKSKTDGGTTDYAAPVKGRFSISRNDSNNTLFLQMNSLKTEDTAVYYCTTGPQIVVVAGATSRDQPNYYYYGLDVWGLGTTVTVSS VL: QSVLTQPPSASGTPGQRVTISCSGSSSNIGINTVNWYQQLPGTAPKLLIYKSNLRPSGVPDRFSGSKSGTSASLAISGLRSEDEADYYCAAWDDSLTGLYVFGTGTKVTVLG | – | 90 | 980 | 1.3 | 0.461 | 7.77e-05 | 169000 | – | – | – | – | – | – | 80 | – | – | – | – | –
8 | B4 antibody (antibody, V domains shown) VH: EVQLVESGGGLVKPGGSLRVSCAASGFTFSSYSMNWIRQAPGKGLEWVSSISSNSSYIYYADSVKGRFTISRDNAKNSLYLQMNSLRAEDTAVYYCARDRDYSNYLTAWGQGTLVTVSS VL: QSVLTQPPSVSGAPGQRVTISCTGSSSNIGAGYDVHWYRQLPGTAPKLLIYGKNNRPSGVPNRFSGSKSGTSASLAITGLQAEDEADYYCQSYDSSLSGSVFGGGTKLTVLG | – | – | – | – | – | – | – | – | 93 | 130 | 0.121 | 6.44e-05 | 531000 | – | – | – | – | – | –
9 | B1 antibody (antibody, V domains shown) VH: EVQLVESGGGLVQPGGSLRLSCAASGFTFRSYWMHWVRQVPGKGLVWVSCINKEGSSTTYADSVKGRFTISRDNAKNTLYLEMNSLRADDTAVYYCLRGYDVDYWGQGTLVTVSS VL: QAVLTQPSSLSASPGASVSLTCTLRSGINVGTYRIYWYQQKPGSPPRYLLRYKSGLDKHQGSGVPSRFSGSKDDSANAGILFISGLQSEDEADYYCLIWHSSAVVFGGGTKLTVLG | – | – | – | – | – | – | – | – | 91 | 270 | 0.0477 | 2.79e-05 | 585000 | – | 95 | 49 | no binding | no binding | –
10 | B3 antibody (antibody, V domains shown) VH: EVQLVESGGGLVQPGGSLRLSCSASGFTFRSYWMHWVRQVPGKGLVWVSCINKEGSSTTYADSVKGRFTISRDNAKNTLYLQMNSLRADDTAVYYCLRGYDVDYWGQGTLVTVSS VL: QAVLTQPSSLSASPGASVSLTCTLRSGVNVGSYRIYWYQQKPGSPPRYLLRYKSGLDKHQGSGVPSRFSGSKDDSANAGILFISGLQSENDADYYCLIWHNSAVVFGGGTKLTVLG | – | – | – | – | – | – | – | – | 95 | 600 | 0.487 | 9.4e-05 | 193000 | – | 100 | 100 | no binding | – | no binding
